Measurements published in PMC4515589, “In vitro analysis of phosphorothioate modification of DNA reveals substrate recognition by a multiprotein complex” (Scientific Reports, 2015).

B1: DptC with N-terminal His-tag (S. enterica serovar Cerro 87) (enzyme)
chain: MSKLVQAYDLAEYEDFINQEQFAGRPLAEYVAEVQRIYCADKRPWVIGYSGGKDSSAVITLVYLALLGLPPEMRSKDVFIVSSDTLVETPVVVDLIKKTMLQIEAGAKRNGLPITQHAVTPKTNETFWVNLLGKGYPAPTRSFRWCTERMKINPVSDFIKDKVSQFDEVIVVLGSRSSESASRAQVIAKHKIDGSRLARHTTLANAFIYTPIDTWDVEDVWKLLRGAFRYAPEDIDEWESPWGGNNRPLWTLYMDSSAQGECPLVIDESTPSCGNSRFGCWTCTVVTKDKAMESLIKNGEEWMSPLLKYRDLLAFTTDPANKDTYRNYKRRTGKVSYQYAKDGEDRSAERKHVPGPYWLKYRQQWLKDLLEIERDLNAQGHTITLITQPELHAIRQEWLKDPNEPDWHDTLPEIYREVYQQDLNWVVDDQSRFDASDADLLAQITQGFDVVPEMVMKLIELETSMEGLSRRQGIFDKLGTILKQDWGSLEEIQQQQATLQKRNDRDIHQDEVEKLEAELQTLQRRIIDAGESSVLIDEENERAH
notes: DptC, phosphorothioate-modifying protein of Salmonella enterica serovar Cerro 87; coding region of the dptC/D/E operon amplified from genomic DNA; the upstream primer begins at the ATG of dptC; also called His-Tag labeled DptC; labelled DptC; source: E. coli BL21 (DE3), co-overexpressed with DptD and DptE from pET-28a(+); in lysate, then purified (nickel HiTrap chelating column, Superdex gel …)
B2: DptE (S. enterica serovar Cerro 87) (natural protein)
chain: MLPNRMVLSRQTEDQLKKLKGYTGITPNVAARLAFFRSVESEFRYSPERDSKKLDGSLVLDKITWLGETLQATELVLKMLYPQLEQKILIKAWAAHVDDGIAALRNYRSLKDFSKNI
notes: DptE (13 kDa), phosphorothioate-modifying protein of Salmonella enterica serovar Cerro 87; expressed from the coding region of the dptC/D/E operon; also called PT-modifying protein E; source: E. coli BL21 (DE3), co-overexpressed with His-DptC and DptD from pET-28a(+); in lysate, then co-purified with His-DptC (nickel column, gel filtration)
B3: DptD (S. enterica serovar Cerro 87) (enzyme)
chain: MRANRLCLSMRKMNVLIKQLVLHNFRVFCGTHTIDLAPRKRPHEVNPRPIVLFGGLNGAGKTSILSAIRLALYGRLAFGPAMQQQEYVEQLGALVHNGTYTAERPDEAAVELTFTYNQNGHETEFTVTRSWKKGKKDRLSLQQDGQPRSELSYDQCQGFLNELIPHGVADLFFFDGEKIAELAEDESGNILRTAVRRLLGLDLIARLQNDLMIFIKRQQTAQLGGSQQQQVEALEAKIKTLAGQAEKLLEEADFVNSRIEFLSQDIIRHEGLLNAQGGAFAQTKAQEKQKVETLLKEKERLEKALRQECDGSLPYALAPNTLSRLLEKIANEAQIKQAKIFETELNQFLTQLKNDIAFRSSSESSTRAIATEAITNNLDAYMATKPKGDLLFDISEREAGMLQQSIEQDSKKAWQRFDMYRHQLADIEQQLEQAAANIARAPEDEQLMDLFAALRDLDHKREKQRQKYRSLLEEAKRTKQQQLDCVRQVQKAHDITRSQHGLSSAFKNAQETINLLDYYSNVLTQARVKKLSANFEIAYHKLARKEDLQLNAHINPQTFDVELVDEKGSVINRKLLSAGEKQIYAIAILEALAKTSGRDFPVIIDTPLGRLDSQHRDKLINHYFPEASHQVVLLSTDTEVDERYFVDRLRDDISHAYEIVFNAHTKSSALKPGYFWELTKEAV
notes: DptD (77 kDa), phosphorothioate-modifying protein of Salmonella enterica serovar Cerro 87; expressed from the coding region of the dptC/D/E operon; also called PT-modifying protein D; source: E. coli BL21 (DE3), co-overexpressed with His-DptC and DptE from pET-28a(+); in lysate, then co-purified with His-DptC (nickel column, gel filtration)

Biological target: the molecule itself
Experiment: SEC + other: densitometry of SDS-PAGE bands; ~600 kDa gel filtration fraction of the DptC/D/E complex resolved on Coomassie-stained SDS-PAGE, bands quantified by ImageJ and normalised by molecular mass; copy number worked out from the ~600 kDa mass and the equimolar amounts

Protein | stoichiometry N
B1 | 4
B2 | 4
B3 | 4
